These results are taken from article PMC11094360, “Systematic characterization of gene families and functional analysis of PvRAS3 and PvRAS4 involved in rosmarinic acid biosynthesis in Prunella vulgaris” (Frontiers in Plant Science, 2024).

For data set [1], the system named is PvRAS4. Description: UPLC of acceptor consumption, nonlinear regression. It is filed as biochemical, Prunella vulgaris. The note with it: varied acyl acceptor, 2 mM p-coumaroyl-CoA; 100 mM Tris-HCl pH 7.0, 2 mM DTT, 4 mM MgCl2, 10% glycerol, 25 °C. The text has this: UPLC of acceptor consumption, nonlinear regression on PvRAS4
Data set [2] concerns PvRAS4. In words: UPLC of product formation, nonlinear regression. The format is biochemical, Prunella vulgaris. The note with it: varied acyl donor, 2 mM DHPL; 100 mM Tris-HCl pH 7.0, 2 mM DTT, 4 mM MgCl2, 10% glycerol, 25 °C. The source says:
UPLC of product formation, nonlinear regression on PvRAS4

Substrate in data set [3]: O=C(O)C(O)Cc1ccc(O)cc1
Description: UPLC of acceptor consumption, nonlinear regression. It is filed as biochemical, Prunella vulgaris. The note with it: varied acyl acceptor, 2 mM p-coumaroyl-CoA, 100 mM Tris-HCl pH 7.0, 2 mM DTT, 4 mM MgCl2, 10% glycerol, 25 °C.

Substrate in the data set “purified protein”: O=C(O)[C@H](O)Cc1ccc(O)c(O)c1
Description: purified protein. The conditions noted are these: varied acyl acceptor, 2 mM p-coumaroyl-CoA, 100 mM Tris-HCl pH 7.0, 2 mM DTT, 4 mM MgCl2, 10% glycerol, 25 °C.

Substrate in data set [4]: CC(C)(COP(=O)(O)OP(=O)(O)OC[C@H]1O[C@@H](n2cnc3c(N)ncnc32)[C@H](O)[C@@H]1OP(=O)(O)O)[C@@H](O)C(=O)NCCC(=O)NCCSC(=O)/C=C/c1ccc(O)c(O)c1
Description: UPLC of product formation, nonlinear regression. It is filed as biochemical, Prunella vulgaris. The conditions noted are these: varied acyl donor, 2 mM DHPL, 100 mM Tris-HCl pH 7.0, 2 mM DTT, 4 mM MgCl2, 10% glycerol, 25 °C.

Substrate in data set [5]: CC(C)(COP(=O)(O)OP(=O)(O)OC[C@H]1O[C@@H](n2cnc3c(N)ncnc32)[C@H](O)[C@@H]1OP(=O)(O)O)[C@@H](O)C(=O)NCCC(=O)NCCSC(=O)/C=C/c1ccc(O)cc1
In words: UPLC of product formation, nonlinear regression. It is filed as biochemical, Prunella vulgaris. The note with it: varied acyl donor, 2 mM pHPL, 100 mM Tris-HCl pH 7.0, 2 mM DTT, 4 mM MgCl2, 10% glycerol, 25 °C.

By Km is commonly meant the substrate concentration at which the rate is half of its maximum. One may read the Vmax as the top rate of the reaction or transport when substrate is in excess. A word on the kcat: it is the maximal rate divided by the concentration of active sites. The kcat/Km is the turnover number divided by the Michaelis constant.

For the molecule `O=C(O)C(O)Cc1ccc(O)cc1` (stereo not shown) [pHPL], the Km in the data set with PvRAS4 [1] came out at 228 ± 16.6 µM.

Take `CC(C)(COP(=O)(O)OP(=O)(O)OC[C@H]1O[C@@H](n2cnc3c(N)ncnc32)[C@H](O)[C@@H]1OP(=O)(O)O)[C@@H](O)C(=O)NCCC(=O)NCCSC(=O)/C=C/c1ccc(O)cc1` [p-coumaroyl-CoA]: the Km in the data set on PvRAS4 [2] is 218 ± 10.3 µM.

As to `O=C(O)[C@H](O)Cc1ccc(O)c(O)c1` [DHPL], the Km in the data set on PvRAS4 [1] was determined as 227 ± 17.5 µM.

B1: PvRAS3 (Prunella vulgaris) (protein)
chain: MKIEVKESTMVKPAAETPTGGLWISNLDLLSPANYHTLSVHFYRHDGSDNFFEAAPLKEALSRALVEFYPYAGRLKLNGKRLEIDCNGEGLLLVEAESDGTLEELGDFAPRPDLNLIPKVDYSKGISSYPLMLFQITRFKCGGVGLGVANEHHLSDGVSALHFINTWCHLARGVPAPSPAPVFDRTALSARSPPKVEFTHPEFQPPPTLPTPLEHTDIAYAKLKLSRDQLNALKAKCKSPATANGQENGKPARPYSTFEVLAGHIWRCVCAARGLPAEQETKLHIPFDGRAKLQLPAGFFGNAIFFATPIATCGEVEANSLSYAVRRVGDAIGRLDEEYLRSSVDFLELQDDISKLAQGAHSFRCPNLWVISWVRLPIYEPDFGWGKAVYMGPWAAPFEGKSYLLPNPDNDGSLFVAITLHTQHMDRFQNFFYDI
As to B1, in data set [3], the Km was 32.1 ± 0.7 µM, the Vmax worked out at 19.4 µmol/min/mg, the kcat is 33.3 ± 2.3 s⁻¹ and the kcat/Km was 1e+06 M⁻¹ s⁻¹. Moreover, in “purified protein”, the Km was found to be 41.7 ± 1.2 µM, the Vmax was 18.2 µmol/min/mg, the turnover number (kcat) was found to be 30.5 s⁻¹ and the kcat/Km worked out at 700000 M⁻¹ s⁻¹. For the same molecule, in data set [4], the Km is listed as 173.2 ± 9.0 µM, the Vmax came out at 9.95 µmol/min/mg, the kcat was 14.1 ± 1 s⁻¹ and the kcat/Km came out at 80000 M⁻¹ s⁻¹. In data set [5], the Km came to 30.6 ± 1.2 µM, the maximum rate (Vmax) was found to be 18.7 µmol/min/mg, the kcat amounted to 34.3 ± 2.2 s⁻¹ and the kcat/Km amounted to 1.1e+06 M⁻¹ s⁻¹.
